Test results published in the nanobody polyreactivity screen of Harvey et al. (2022).

assay: yeast display, Sf9 membrane polyspecificity reagent, FACS + sequencing; frameworks hold sequencing errors
Summary of the method: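 Galactose induction of a Saccharomyces cerevisiae BJ5465 synthetic nanobody display library ran 36–48 hours. The cells were then stained for 1 hour at 4 °C with 10% biotinylated, detergent-solubilized Sf9 membrane reagent, pulled down on streptavidin microbeads and FACS-sorted into low and high (top ~1%) gates on expression and reagent-binding fluorescence. Labels for polyreactivity follow the gate of origin.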

Row | Sequence | polyreactivity (PSR sort gate)
1 | QDQLVESGGGLVQAGGSLRLSCAASGRNFYRYVMGWYRQAPGKERELVAAITSSGGSTYYADSVKGRFTISRDNAKNTFYLQMNSLKPEDTAVYYCAADRYTRYRYYYWGKGTQVTVSS | high polyreactivity
2 | QDQLVESGGGLVQAGGSLRLSCAASGRTFDDYAMGWYRQAPGKERELVAAISSSGGSTYYADSVKGRFSISRDNAKNTVYLQMNCLKPDDTAVYYCAADYDWGYWYDYWGQGTQVTVSS | low polyreactivity
3 | QDQLVESGGGLVQAGGSLRLSCAASGRTFDLYAMGCYRQAPGKERELVAAITKGGGSTYYADSVKGRFTISRDNAKNTVYLQMNSLKPEDTAVYYCAARKYKRIYRISSGIGYYWGQGTQVTVSS | high polyreactivity
4 | QDQLVESGGGLVQAGGSLRLSCAASGRTFDRNAMGWYRQAPGKERELVARITIDGSTNYADSVKGRFTISRDNAKNTVYLQMNSLKPEDTAVYYCATDQLSLSWYFRPYDYGYWGQGTQVTVSS | high polyreactivity
5 | QDQLVESGGGLVQAGGSLRLSCAASGRTFRSYVMGWYRQAPGKERELVAAITTSGGSTYYADSVKGRFTISRDNAKNTVYLQMNSLKPEDTAVYYCAAEYYTYTGHYDSWYGDDYWGQGTQVTVSS | high polyreactivity
6 | QDQLVESGGGLVQAGGSLRLSCAASGRTFVAYAMGWSRQAPGKERELVARISSGGSTYYADSVKGRFTISRDNAKNTVYLQMNSLKPEDTAVYYCAADRGPYFVPWRRYDYWGQGTQVTVSS | low polyreactivity
7 | QDQLVESGGGLVQAGGSLRLSCAASGRTISGYVMGWYIQAPGKERELVATINGSGASTYYADSVKGRFTISRDNAKNTVYLQMNSLKPEDTAVYYCAAKRYRPKYEYYYWGQGTQVTVSS | high polyreactivity
8 | QDQLVESGGGLVQAGGSLRLSCAASGSIFAGNVMGWYRQAPGKERELVAAISRRGGRTYYADSVKGRFTISRDNAKNTVYLQMNSLKPEDTAVYYCAARRDPVLGKSDYWGQGTLVTVSS | high polyreactivity
9 | QDQLVESGGGLVQAGGSLRLSCAASGSIFGGYGMGWYRQAHGKERELVAAITSGSSTYYADSVKGRFTISRDNAKNTVYLQMNSLKPEDTAVYYCAARPYPNSAYEGDYWGRGTQVTVSS | low polyreactivity
10 | QDQLVESGGGLVQAGGSLRLSCAASGSIFKINAMGWYRQAPGKERELVATITWSTGTTYYADSVKGRFTISRDNAKNTVYLQMYSLKPEDTAVYYCATDGDSTKLDYWGQGTQVTVSS | low polyreactivity
11 | QDQLVESGGGLVQAGGSLRLSCAASGSIFPYNAMGWYRQAPGKERELVATISSGGSTNYADSVKGRFTISRDNAKNTVYLQMNSLKPEDTAVYYCAAVVIVFYYAPNYWGDIEYGYWGQGTQVTVSS | low polyreactivity
12 | QDQLVESGGGLVQAGGSLRLSCAASGSIFRKYVMGWYRQAPGKERELVAAISGSGGRTYYADSVKGRFTISRDNAKNTVYLQMNSLKPEDTAVYYSNAYPHAYTGSTREGDYWGQGTQVTVSS | high polyreactivity
13 | QDQLVESGGGLVQAGGSLRLSCAASGSIFTFNTMGWYRQAPVKERELVATISSGGRTYYADSVKGRFTISRDNAKNTVYLQMNSLKPEDTSVYYCNKGYYGYTYVEYNYWGQGTQVTVSS | low polyreactivity
14 | QDQLVESGGGLVQAGGSLRLSCAASGSIFVENAMGWYRQAPGKEREFVAAITRSGGSTYYADSVKGRFTISRDNAKNPVYLQMNSMKPEDTAVYYCAARIWDEQPAAGYYWGQGTQVTVSS | low polyreactivity
15 | QDQLVESGGGLVQAGGSLRLSCAASGSIFWLYAMGWYRQAHGKERELVASITGGGSTNYADSVKGRFTISRDNAKNTVYLQMNSLKPEDTAVYYCAKRYYRTGRKRTGLDYWGQGTQVTVSS | high polyreactivity
16 | QDQLVESGGGLVQAGGSLRLSCAASGSIFYYYAMGWYRQAPGKERELVASISRSGGSTFYADSVKGRFTISRDNAKNSVYLQMNRLKPEDTAVSYCATGWYYSPYNYWGQGTQVTVSS | high polyreactivity
17 | QDQLVESGGGLVQAGGSLRLSCAASGSIFYYYVMGWYRQETGKEREFVAAISWGGDSTYYADSVKGRFTISRDNAKNTVYLQMNSLKTEDTAVYYCKADYPWSVLAYDYWGQGTQVTVSS | low polyreactivity
18 | QDQLVESGGGLVQAGGSLRLSCAASGSISSTNAMGWYRQAPGKERELVATISWIGGSTYADSVKGRFTISRDNAKNTVYLQMNSLKPEDTAVYYCNRDWIFTKDYDYWGQGTQVTVSS | low polyreactivity
19 | QDQLVESGGGLVQAGGSLRLSCAASGSMLVNNAMGCYRQAPGKERELVAASSKSTGRTYYADSVKGRFTISRDNAKNTVYLQMNSLKPVDTAVFYCYALTHPDKFVYWGQGTQVTVSS | high polyreactivity
20 | QDQLVESGGGLVQAGGSLRLSCAASGSNFGPYAMGGYRHAPGKERELVARISGGGSTYYADSVKGRFTISRDNAKNTVYLQMNSLKPEDTAVYYCNVRNWAYWSHAIIYNYWGQGTLVTVSS | high polyreactivity
21 | QDQLVESGGGLVQAGGSLRLSCAASGSNFPTNAMGWYRPAPGKERELVADITIRGGGTSYADSVKGRFTISRDNAKNTVYLHMNSLKPEDTAFYYCARSKSTELKRLLFDSWGQGTQVTVSS | low polyreactivity
22 | QDQLVESGGGLVQAGGSLRLSCAASGSNLYRNAMGWSRQAPGKERELVAAITSRGGSTYADSVTGRFTISRDNAKNTVYLQMNSLKPEDTAVYYCAKGYLYRRPTVTHGYWGQGTQVTVSS | low polyreactivity

Row | Sequence | polyreactivity (PSR sort gate)
23 | QDQLVESGGGLVQAGGSLRLSCAASGSTFAGNGMGWYRQAPGKERELVAGIDVTGGSTYYADSVKGRFTISRDNAKNTVYLQMNSLKPEDTAVYFCNARYVYHSSFAGFDYWGQGTQVTVSS | low polyreactivity
24 | QDQLVESGGGLVQAGGSLRLSCAASGSTFAGYAMGWYRQAPGKERELVATITYSGGSTYYADSVKGRFTISRDNAKNTVYLQMNSLKPEDTAVYYCAKKASYWWGYEYWGQGTQVTVSS | low polyreactivity
25 | QDQLVESGGGLVQAGGSLRLSCAASGSTFGNYAMGWYRQAPGKERELVAAITSGGTTNYADSVKGRFTISRDNAKNTVYLQMNSLKPEDTAVYYCNAVGTFVRYSTDGRDGVTYDYWGHGTQVTVSS | low polyreactivity
26 | QDQLVESGGGLVQAGGSLRLSCAASGSTFIDNVMGWYRQPPGQERELVAAINSGGSTDYADSLKGRFTISRDNAKNTVYLLMNRLKPEDTAVYYCNAYHIVIYDYWGQGTQVTVSS | low polyreactivity
27 | QDQLVESGGGLVQAGGSLRLSCAASGSTFQWYAMVWYRQAPGKERELVAAINKSGGTTYYADSVKGRFTISRDNAKNTVYLQMNRLKPEDTAVYYCATDNPVVYQPGNLDYWVQGTQVTVSS | low polyreactivity
28 | QDQLVESGGGLVQAGGSLRLSCAASGSTFRGNAKGWYRQAPGKERELVAAITGSGGRRYYADSVKGRFTISRDYAKNTVYLQMNSLKPEDTAVYYCAAVYYGYRDRTDYGYWGQGTQVTVSS | high polyreactivity
29 | QDQLVESGGGLVQAGGSLRLSCAASGSTFSDNTMGWYRQAPGKERELVAANTTIGGSTYYADSVKGRFTISRDNAKNTVSVQMISLKPEDTAVYYCAAVDFTSQYYDLYIYWGQGTQVTVSS | low polyreactivity
30 | QDQLVESGGGLVQAGGSLRLSCAASGSTFTPNALGWYRQPPGKQRELVAAISTRGSSTYYADSVKGRFTISRDNAKNTVYLQMNRLKPEDTAVYSCAAPFKYGLSYGSWYGYCGQGTQVTVSS | high polyreactivity
31 | QDQLVESGGGLVQAGGSLRLSCAASGSTFYIYAMGWNIQAPGKERELVAAISTTDGTTYYADSVKGRFTISRDNAKKTVYLQMNSLKPEDTAVYYCAAEWFGSVQPAYDYWGQVTQVTVSS | high polyreactivity
32 | QDQLVESGGGLVQAGGSLRLSCAASGSTFYYNAMGLYRQAPGKEREVVARISRSGGSTYADSVKGRFTISRDNAKNTVYLQMNSLKPEDTAVYYCNADAYGTPEFTSYAVRYDYWGQGTQVTVSS | low polyreactivity
33 | QDQLVESGGGLVQAGGSLRLSCAASGVTFVTYAMGGSRQAPGKERELVAAITTGGSTNYADSVKGRFTISRDNAKNTVYLQMNSLKPEDTAVYYCAAQRVSVLLFVRHDYWGQGTQVTVSS | low polyreactivity
34 | QDQLVESGGGLVQAGGSLRLSCAASGYTFKAYAMVWYRQAPGKERELVDAISRGGRTNYADSVKGRFTISRDNAKNTVYLQMNSLKPEDTAVYYCNTQRQLGVRFYDRSRQGDYWGQGTQVTVSS | high polyreactivity
35 | QDQLVESGGGLVQAGGSLRLSCAASGYTFSYYAMGWYRQAPGKERELVAAITSTGSTYYADSVKGRFTISRDYAKNTVYLQMNILKPEDTAVYYCNVDDATVGPVDYWGQGTQVTVSS | low polyreactivity
36 | QDQLVESGGGLVQAGGSLRLSCAASRLTFYVYAMGWYRQAPGKERELVAAISGRGGRTYYADSVKGRFTISRDNAKNTVYLQMNSLKPEDTAVYDCAPRYPRYRYVEYGYNYWGQGTQVTVSS | high polyreactivity
37 | QDQLVESGGGLVQAGGSLRLSCAASVFIFYSYTRGWYRQAPGKERELVATISSNGGRTYYADSVKGRFTISRDNAKNTVYLQMNSLKPEDTAVYYCATDVPHGYYWSYGDYYCGQGTQVTVSS | low polyreactivity
38 | QDQLVESGGGLVQAGGSLRLSCAASVSIFASYAMGRYRPAPGKERELVAAISSRGSRTYYADSVKGRFTISRDNAKNTVYLQMNRLKPQDTAVYYCAAYSPDYYNAEFGYWGQGTHVTVSS | high polyreactivity
39 | QDQLVESGGGLVQAGGSLRLSCASSGFTIVYYAMGWYRQAPGKERELVADISSYGSTYADSVKGRFTISRDNAKNTVYLLMNSLKPEDTAVYYCAAEYIYQPHYGYYYWGQGTQVTVSS | high polyreactivity
40 | QDQLVESGGGLVQAGGSLRLSCRASGFTFTHYAMGWSRKAPGKERELVAAIDRSGDSTYYADSVKGRFTISRDNAKNTVYLQMNSLKPEDTAVYYSAADLFDSLIWVYWTYVARFDYWGQGTQVTVSS | low polyreactivity
41 | QDQLVESGGGLVQAGGSLRLSCSASGSIVGLYAMGWYRQAPGKERELVAAITASDGYTYYADSVKGRFTNSRDNAKNTVYLQMNSLKPEDTAVYYCNADAYSGYFLFDYWGQGTQVNVSS | low polyreactivity
42 | QDQLVESGGGLVQAGGSLRLSCSAYGSILKNNAMGLYIQSPGQERELVAAISSDGSTNYADSVKGRFRISRDNAKNTVYLQMNSLKPEDTAVYYCAAHDNGAWVRMDYWGQGTQVTVSS | low polyreactivity
43 | QDQLVESGGGLVQAGGSLRLSFAASGATFKRYAMGWYRQAPGKERELVATINSGTSTNYADSVKGRFTISRDNAKNTVYLQMNSLKPEDTAVYYCAKTFRRSVGGYGYDYWGQGTQVTVSS | low polyreactivity
